Measurements taken from PMC3679363 (Molecular cell, 2013).

Target: recombinant His-Tip60α ( (human or mouse cDNA cloned), UniProt Q92993 1-513)
Assay: pull-down

Chain of recombinant His-Tip60α (Q92993 whole entry): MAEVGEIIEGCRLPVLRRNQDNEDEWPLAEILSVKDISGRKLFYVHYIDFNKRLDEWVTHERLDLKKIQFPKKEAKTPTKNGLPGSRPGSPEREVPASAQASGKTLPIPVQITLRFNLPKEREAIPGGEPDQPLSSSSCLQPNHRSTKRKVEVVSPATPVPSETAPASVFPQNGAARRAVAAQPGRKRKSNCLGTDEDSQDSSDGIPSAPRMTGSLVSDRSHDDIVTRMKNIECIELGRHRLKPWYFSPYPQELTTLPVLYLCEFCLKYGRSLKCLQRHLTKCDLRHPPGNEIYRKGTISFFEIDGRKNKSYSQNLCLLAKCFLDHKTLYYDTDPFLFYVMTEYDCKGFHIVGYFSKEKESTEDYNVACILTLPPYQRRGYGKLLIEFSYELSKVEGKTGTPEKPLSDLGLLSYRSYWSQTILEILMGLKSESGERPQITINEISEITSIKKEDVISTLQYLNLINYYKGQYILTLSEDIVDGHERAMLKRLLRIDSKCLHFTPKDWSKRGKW

B1: GST-PRAK (enzyme, UniProt Q8IW41 1-473, looked up)
chain: MSEESDMDKAIKETSILEEYSINWTQKLGAGISGPVRVCVKKSTQERFALKILLDRPKARNEVRLHMMCATHPNIVQIIEVFANSVQFPHESSPRARLLIVMEMMEGGELFHRISQHRHFTEKQASQVTKQIALALRHCHLLNIAHRDLKPENLLFKDNSLDAPVKLCDFGFAKIDQGDLMTPQFTPYYVAPQVLEAQRRHQKEKSGIIPTSPTPYTYNKSCDLWSLGVIIYVMLCGYPPFYSKHHSRTIPKDMRRKIMTGSFEFPEEEWSQISEMAKDVVRKLLKVKPEERLTIEGVLDHPWLNSTEALDNVLPSAQLMMDKAVVAGIQQAHAEQLANMRIQDLKVSLKPLHSVNNPILRKRKLLGTKPKDSVYIHDHENGAEDSNVALEKLRDVIAQCILPQAGKGENEDEKLNEVMQEAWKYNRECKLLRDTLQSFSWNGRGFTDKVDRLKLAEIVKQVIEEQTTSHESQ
- binding result: binds
